Experimental data as given in article PMC3068233.
Residue numbers refer to the chain shown, from its start.

Key:
HMGB1 domain A C44S = target: T1, HMGB1 domain A C44S (UniProt P09429 9-79, C45S); assay: EMSA
T1 sequence: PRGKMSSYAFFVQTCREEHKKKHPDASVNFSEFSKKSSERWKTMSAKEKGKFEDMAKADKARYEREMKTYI

HMGB1 domain A C22A = target: T2, HMGB1 domain A C22A (UniProt P09429 9-79, C23A); assay: EMSA
T2 sequence: T1 sequence with C15A, S37C

HMGB1 domain A C22S/C44S = target: T3, HMGB1 domain A C22S/C44S (UniProt P09429 9-79, C23S;C45S); assay: EMSA
T3 sequence: T1 sequence with C15S

HMGB1 domain A C44A = target: T4, HMGB1 domain A C44A (UniProt P09429 9-79, C45A); assay: EMSA
T4 sequence: T1 sequence with S37A

HMGB1 domain A C22A/C44A = target: T5, HMGB1 domain A C22A/C44A (UniProt P09429 9-79, C23A;C45A); assay: hydroxyl radical footprinting
T5 sequence: T1 sequence with C15A, S37A

HMGB1 domain A wild type = target: T6, HMGB1 domain A wild type (UniProt P09429 9-79); assay: EMSA
T6 sequence: T1 sequence with S37C

B1: 25-bp cisplatin-modified TGGA probe (dsDNA)
DNA 1: CCTCTCCTCTCTGGATCTTCTCTCC
DNA 2: GGAGAGAAGATCCAGAGAGGAGAGG
modifications: cisplatin 1,2-d(GpG) intrastrand cross-link at N7 of G13 and G14 of strand 1
With B1 the Kd (HMGB1 domain A C44S) was 1.6 ± 0.07 nM, the Kd (HMGB1 domain A C22A) was 1.12 ± 0.14 nM and the Kd (HMGB1 domain A C22S/C44S) was 1.65 ± 0.37 nM. For the same binder, the Kd (HMGB1 domain A C44A) was 2.41 ± 0.31 nM, the binding result (HMGB1 domain A C22A/C44A) was “binds” and the Kd (HMGB1 domain A wild type) was 0.7 ± 0.1 nM.
